Experimental data as given in paper PMC7573561.
pKd: −log10 of the molar value.

Biological target: Actin (coated on BLI biosensors)
Test: BLI; Octet RED, 25 C; APS (aminopropylsilane) biosensors coated with 10 ug/mL actin; rPDCP-1 in PBS pH 7.4 with 0.05% Tween 20 and 0.1% BSA; 300 s association, 120 s dissociation

Recombinant PDZ-domain-containing-protein-1 (rPDCP-1) (natural protein)
pKd: 6.11
